Measurements: US20260062487A1

What was measured:
[1] = target: HLA-A*01:01 with … (ERGIC3) from cells (human); experiment: IP-MS, K562-A*01:01 lysate
[2] = target: HLA-A*01:01 with … (RBM4) from cells (human); experiment: IP-MS, K562-A*01:01 lysate
[3] = target: HLA-A*01:01 with … (UBR2) from cells (human); experiment: IP-MS, K562-A*01:01 lysate
[4] = target: off-target HLA-A*01:01_… (PTS) on cells (human); experiment: IP-MS, K562-A*01:01 lysate
[5] = target: HLA-A*01:01 with … (DSG3) from cells (human); experiment: IP-MS, NCI-H1703 lysate, Rep1
[6] = target: HLA-A*01:01 with … (DSG4) from cells (human); experiment: IP-MS, NCI-H1703 lysate, Rep1
[7] = target: HLA-A*01:01 with … (ERGIC3) from cells (human); experiment: IP-MS, NCI-H1703 lysate, Rep1
[8] = target: HLA-A*01:01 with … (RBM4) from cells (human); experiment: IP-MS, NCI-H1703 lysate, Rep1
[9] = target: HLA-A*01:01 with … (ROBO1) on cells (human); experiment: IP-MS, NCI-H1703 lysate, Rep1
[10] = target: HLA-A*01:01 with … (UBR2) from cells (human); experiment: IP-MS, NCI-H1703 lysate, Rep1
[11] = target: HLA-PEPTIDE target A*01:01_… (G2) on cells (human); experiment: IP-MS, NCI-H1703 lysate, Rep1
[12] = target: off-target HLA-A*01:01_… (ICE1) on cells (human); experiment: IP-MS, NCI-H1703 lysate, Rep1
[13] = target: off-target HLA-A*01:01_… (KDM7A) on cells (human); experiment: IP-MS, NCI-H1703 lysate, Rep1
[14] = target: off-target HLA-A*01:01_… (PTS) on cells (human); experiment: IP-MS, NCI-H1703 lysate, Rep1
[15] = target: HLA-A*01:01 with … (DSG3) from cells (human); experiment: IP-MS, NCI-H1703 lysate, Rep2
[16] = target: HLA-A*01:01 with … (DSG4) from cells (human); experiment: IP-MS, NCI-H1703 lysate, Rep2
[17] = target: HLA-A*01:01 with … (ERGIC3) from cells (human); experiment: IP-MS, NCI-H1703 lysate, Rep2
[18] = target: HLA-A*01:01 with … (RBM4) from cells (human); experiment: IP-MS, NCI-H1703 lysate, Rep2
[19] = target: HLA-A*01:01 with … (ROBO1) on cells (human); experiment: IP-MS, NCI-H1703 lysate, Rep2
[20] = target: HLA-A*01:01 with … (UBR2) from cells (human); experiment: IP-MS, NCI-H1703 lysate, Rep2
[21] = target: HLA-PEPTIDE target A*01:01_… (G2) on cells (human); experiment: IP-MS, NCI-H1703 lysate, Rep2
[22] = target: off-target HLA-A*01:01_… (ICE1) on cells (human); experiment: IP-MS, NCI-H1703 lysate, Rep2
[23] = target: off-target HLA-A*01:01_… (KDM7A) on cells (human); experiment: IP-MS, NCI-H1703 lysate, Rep2
[24] = target: off-target HLA-A*01:01_… (PTS) on cells (human); experiment: IP-MS, NCI-H1703 lysate, Rep2
[25] = target: HLA-A*01:01 with … (DSG3) from cells (human); experiment: IP-MS, NCI-H1703 lysate, Rep1 (peptide also 0 with W6/32)
[26] = target: HLA-A*01:01 with … (DSG4) from cells (human); experiment: as above
[27] = target: HLA-A*01:01 with … (DSG3) from cells (human); experiment: IP-MS, NCI-H1703 lysate, Rep2 (peptide also 0 with W6/32)
[28] = target: HLA-A*01:01 with … (DSG4) from cells (human); experiment: as above

W6/32 antibody was tested, and the copies per cell of the peptide recovered by immunoprecipitation (copies per cell) [1] was 96, the copies per cell of the peptide recovered by immunoprecipitation (copies per cell) [2] was 1000 and the copies per cell of the peptide recovered by immunoprecipitation (copies per cell) [3] was 6. The copies per cell of the peptide recovered by immunoprecipitation (copies per cell) [4] was 91, the copies per cell of the peptide recovered by immunoprecipitation (copies per cell) [5] was 0 and the copies per cell of the peptide recovered by immunoprecipitation (copies per cell) [6] was 0. For the same substance, the copies per cell of the peptide recovered by immunoprecipitation (copies per cell) [7] was 3360, the copies per cell of the peptide recovered by immunoprecipitation (copies per cell) [8] was 16700 and the copies per cell of the peptide recovered by immunoprecipitation (copies per cell) [9] was 554. The copies per cell of the peptide recovered by immunoprecipitation (copies per cell) [10] was 891, the copies per cell of the peptide recovered by immunoprecipitation (copies per cell) [11] was 3790 and the copies per cell of the peptide recovered by immunoprecipitation (copies per cell) [12] was 2660. The copies per cell of the peptide recovered by immunoprecipitation (copies per cell) [13] was 2, the copies per cell of the peptide recovered by immunoprecipitation (copies per cell) [14] was 2930 and the copies per cell of the peptide recovered by immunoprecipitation (copies per cell) [15] was 0. It also gave a copies per cell of the peptide recovered by immunoprecipitation (copies per cell) [16] of 0, a copies per cell of the peptide recovered by immunoprecipitation (copies per cell) [17] of 3350 and a copies per cell of the peptide recovered by immunoprecipitation (copies per cell) [18] of 16700. It also gave a copies per cell of the peptide recovered by immunoprecipitation (copies per cell) [19] of 517, a copies per cell of the peptide recovered by immunoprecipitation (copies per cell) [20] of 876 and a copies per cell of the peptide recovered by immunoprecipitation (copies per cell) [21] of 4040. It also gave a copies per cell of the peptide recovered by immunoprecipitation (copies per cell) [22] of 2740, a copies per cell of the peptide recovered by immunoprecipitation (copies per cell) [23] of 2 and a copies per cell of the peptide recovered by immunoprecipitation (copies per cell) [24] of 2980.
control IgG antibodies (antibody) was tested, and the copies per cell of the peptide recovered by immunoprecipitation (copies per cell) [7] was 25, the copies per cell of the peptide recovered by immunoprecipitation (copies per cell) [8] was 113 and the copies per cell of the peptide recovered by immunoprecipitation (copies per cell) [10] was 6. It also gave a copies per cell of the peptide recovered by immunoprecipitation (copies per cell) [12] of 35, a copies per cell of the peptide recovered by immunoprecipitation (copies per cell) [14] of 32 and a copies per cell of the peptide recovered by immunoprecipitation (copies per cell) [17] of 15. It also gave a copies per cell of the peptide recovered by immunoprecipitation (copies per cell) [18] of 79, a copies per cell of the peptide recovered by immunoprecipitation (copies per cell) [20] of 4 and a copies per cell of the peptide recovered by immunoprecipitation (copies per cell) [22] of 21. The copies per cell of the peptide recovered by immunoprecipitation (copies per cell) [24] was 25, the copies per cell of the peptide recovered by immunoprecipitation (copies per cell) [25] was 0 and the copies per cell of the peptide recovered by immunoprecipitation (copies per cell) [26] was 0. For the same substance, the copies per cell of the peptide recovered by immunoprecipitation (copies per cell) [27] was 0 and the copies per cell of the peptide recovered by immunoprecipitation (copies per cell) [28] was 0.
